Five molecules from article PMC3099715 (The Journal of Biological Chemistry, 2011) can be followed below.

Read-outs that look alike come from different tables or passages of the source. No end group written: not given here. fluorescein = fluorescein fluorophore covalently attached to the cysteine residue

Assay [1] concerns the target fluorescein-labeled P5 peptide (F-P5) (chicken). Kind of assay: fluorescence polarisation.
Assay [2] addresses fluorescein-labeled Isu1 peptide (F-Isu1) (S. cerevisiae). Kind of assay: fluorescence polarisation.
The target of assay [3] is fluorescein-labeled P5 peptide (F-P5) (chicken). Kind of assay: fluorescence polarisation. This is another data set of the same source.
The target of assay [4] is T1, substrate-binding domain of Ssc1, Ssc1(418–654) (S. cerevisiae, UniProt P0CS90 418-654).
T1 sequence (looked up): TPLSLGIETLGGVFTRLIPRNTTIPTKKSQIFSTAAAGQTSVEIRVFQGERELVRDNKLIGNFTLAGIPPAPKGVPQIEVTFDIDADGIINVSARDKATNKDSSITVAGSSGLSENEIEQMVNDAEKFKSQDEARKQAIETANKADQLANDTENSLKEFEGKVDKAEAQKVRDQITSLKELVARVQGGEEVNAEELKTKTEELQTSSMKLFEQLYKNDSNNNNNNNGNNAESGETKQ
Kind of assay: fluorescence polarisation.

In assay [5] the target is T2, Ssc1 (mitochondrial heat shock protein 70 of Saccharomyces cerevisiae) (S. cerevisiae, UniProt P0CS90 24-654). Kind of assay: fluorescence polarisation.
The target of assay [6] is T2, Ssc1 (mitochondrial heat shock protein …). Kind of assay: fluorescence polarisation. This is another data set of the same source.
For assay [7] the target is unchanged. Description: fluorescence polarisation. The source holds these as a separate data set.
For assay [8] the target is unchanged. Kind of assay: pull-down.
Assay [9] shares this target. Description: fluorescence polarisation. This is another data set of the same source.

“SBD_(Ssc1)-(ABCD)_(Ssc3) chimera (variable domain of the SBD of Ssc1 replaced with that of Ssc3) (domain or fragment)” gave a Kd in assay [1] of 22.7 µM.
On to “Ssc3 (mitochondrial Hsp70 paralog of Saccharomyces cerevisiae) (natural protein)”, for which the figures for the Kd in [2], in assay [1] and in assay [3] were > 90 µM, 30.1 µM and 26.3 µM, respectively. The molecule also displayed a koff in assay [1] of 0.244 s⁻¹.

B1: fluorescein-labeled P5 peptide (F-P5) (peptide)
peptide: CALLLSAPRR
modifications: fluorescein fluorophore covalently attached to the cysteine residue
Turning to B1, the Kd stood at 0.264 ± 0.041 µM in [4], 0.231 ± 0.014 µM in assay [5] and 30.9 ± 2.6 µM in [7]. The dissociation rate constant (koff) in assay [6] is 0.003 s⁻¹.

B2: GST-Hep1 (yeast Hep1 co-chaperone) (natural protein, yeast (S. cerevisiae), UniProt P42844 48-174, looked up)
chain: NEVKKDDKKVHLGSFKVDKPKMMIAFTCKKCNTRSSHTMSKQAYEKGTVLISCPHCKVRHLIADHLKIFHDHHVTVEQLMKANGEQVSQDVGDLEFEDIPDSLKDVLGKYAKNNSENASQLPHPSQK
Take B2: in assay [8], the Kd is ~1.5 µM.

B3: fluorescein-labeled Isu1 peptide (F-Isu1) (peptide)
peptide: LSLPPVKLHC(fluorescein)
In turn, B3 gave an equilibrium dissociation constant (Kd) in assay [9] of 7.07 ± 0.872 µM.
